“And” between values parts separate entries of the source, which are not always exact repeats. Equal values may be shown once. Where no end group is shown, it is not given here. [ ]: non-standard residue; d: D form. Met(O) = CS(=O)CC[C@H](N)C(=O)O
How the values were obtained:
[1] = Lipid assay and degradant limit test by RP-HPLC; conditions: for Lipid Impurities (HPLC) / Lipid Impurities (RP-HPLC): % of DOPC area; for Lipid Impurities (RP-HPLC): solubilized Batch #4 in vials, room temperature
[2] = Peptide assay and peptide impurities by RP-HPLC; format: physicochemical; conditions: for Peptide Content by RP-HPLC / Peptide Impurities by RP-HPLC (% Area): compositions from sized lipid vesicle particles
Description: Identification and quantification of peptides was performed using a reversed-phase HPLC (RP-HPLC) method. The method utilizes an Agilent 1100 Series HPLC system equipped with a Phenomenex Luna 5 μm C8(2) column. The mobile phase is a gradient of 16-37% (v/v) acetonitrile in 0.1% (v/v) aqueous trifluoroacetic acid. Column temperature is maintained at 50° C., and UV-PDA detection is performed at 215 nm. The assay may also be used to identify peptide impurities. The tests were validated to the extent required for a phase 1/2 clinical phase study (data not included).

[3] = compositions from sized lipid vesicle particles, Average (n = 5)
[4] = compositions from sized lipid vesicle particles, individual Vial 1-5
[5] = sized-vesicle preparation stored at 5° C. ± 3° C., 0 months
[6] = sized-vesicle preparation stored at 5° C. ± 3° C., 3 months
[7] = sized-vesicle preparation stored at 5° C. ± 3° C., 6 months
[8] = sized-vesicle preparation stored at 5° C. ± 3° C., 9 months
[9] = sized-vesicle preparation stored at 5° C. ± 3° C., 12 months
[10] = sized-vesicle preparation stored at 5° C. ± 3° C., 18 months
[11] = sized-vesicle preparation stored at −20° C. ± 5° C., 0 months
[12] = sized-vesicle preparation stored at −20° C. ± 5° C., 6 months
[13] = sized-vesicle preparation stored at −20° C. ± 5° C., 12 months
[14] = sized-vesicle preparation stored at −20° C. ± 5° C., 18 months
[15] = solubilized Batch #4 in syringe, t = 60 min

Compound | Peptide Content by RP-HPLC ([2]; Average (n = 5)) | Peptide Content by RP-HPLC ([2]; individual Vial 1-5) | Peptide Assay (RP-HPLC) [2, 5] | Peptide Assay (RP-HPLC) [2, 6] | Peptide Assay (RP-HPLC) [2, 7] | Peptide Assay (RP-HPLC) [2, 8] | Peptide Assay (RP-HPLC) [2, 9] | Peptide Assay (RP-HPLC) [2, 10] | Peptide Assay (RP-HPLC) [2, 11] | Peptide Assay (RP-HPLC) [2, 12] | Peptide Assay (RP-HPLC) [2, 13] | Peptide Assay (RP-HPLC) [2, 14] | also measured
CC(C)CCC[C@@H](C)[C@H]1CC[C@H]2[C@@H]3CC=C4C[C@@H](O)CC[C@]4(C)[C@H]3CC[C@]12C [Cholesterol, cholesterol] |  |  |  |  |  |  |  |  |  |  |  |  | Lipid Content by RP-HPLC [1, 3]: 11.36 mg/mL; Lipid Content by RP-HPLC [1, 4]: 11.20 mg/mL and 11.62 mg/mL and 11.48 mg/mL and 11.44 mg/mL and 11.05 mg/mL; Lipid Assay (RP-HPLC) [1, 5]: 11.03 mg/mL; Lipid Assay (RP-HPLC) [1, 6]: 11.30 mg/mL; Lipid Assay (RP-HPLC) [1, 7]: 12.26 mg/mL; Lipid Assay (RP-HPLC) [1, 8]: 12.11 mg/mL; Lipid Assay (RP-HPLC) [1, 9]: 12.00 mg/mL; Lipid Assay (RP-HPLC) [1, 10]: 12.25 mg/mL; Lipid Assay (RP-HPLC) [1, 11]: 11.03 mg/mL; Lipid Assay (RP-HPLC) [1, 12]: 12.14 mg/mL; Lipid Assay (RP-HPLC) [1, 13]: 11.10 mg/mL; Lipid Assay (RP-HPLC) [1, 14]: 12.85 mg/mL
CCCCCCCC/C=C\CCCCCCCC(=O)OC[C@H](COP(=O)([O-])OCC[N+](C)(C)C)OC(=O)CCCCCCC/C=C\CCCCCCCC [DOPC, 1,2-Dioleoyl-sn-glycero-3-phosphocholine] |  |  |  |  |  |  |  |  |  |  |  |  | Lipid Content by RP-HPLC [1, 3]: 119.03 mg/mL; Lipid Content by RP-HPLC [1, 4]: 117.39 mg/mL and 121.44 mg/mL and 120.26 mg/mL and 120.00 mg/mL and 116.07 mg/mL; Lipid Assay (RP-HPLC) [1, 5]: 118.41 mg/mL; Lipid Assay (RP-HPLC) [1, 6]: 112.91 mg/mL; Lipid Assay (RP-HPLC) [1, 7]: 124.60 mg/mL; Lipid Assay (RP-HPLC) [1, 8]: 130.11 mg/mL; Lipid Assay (RP-HPLC) [1, 9]: 120.00 mg/mL; Lipid Assay (RP-HPLC) [1, 10]: 121.35 mg/mL; Lipid Assay (RP-HPLC) [1, 11]: 118.41 mg/mL; Lipid Assay (RP-HPLC) [1, 12]: 123.60 mg/mL; Lipid Assay (RP-HPLC) [1, 13]: 102.63 mg/mL; Lipid Assay (RP-HPLC) [1, 14]: 128.00 mg/mL
CCCCCCCC/C=C\CCCCCCCC(=O)O [Oleic Acid, oleic acid] |  |  |  |  |  |  |  |  |  |  |  |  | DOPC degradants by RP-HPLC [1, 4]: 0.60 mg/mL and 0.50 mg/mL; Lipid Degradants (RP-HPLC) [1, 5]: 0.3 mg/mL; Lipid Degradants (RP-HPLC) [1, 6]: 0.2 mg/mL; Lipid Degradants (RP-HPLC) [1, 7]: 0.2 mg/mL; Lipid Degradants (RP-HPLC) [1, 8]: 0.4 mg/mL; Lipid Degradants (RP-HPLC) [1, 9]: 0.2 mg/mL; Lipid Degradants (RP-HPLC) [1, 10]: 0.2 mg/mL; Lipid Degradants (RP-HPLC) [1, 11]: 0.3 mg/mL; Lipid Degradants (RP-HPLC) [1, 12]: 0.3 mg/mL; Lipid Degradants (RP-HPLC) [1, 13]: 0.2 mg/mL; Lipid Degradants (RP-HPLC) [1, 14]: 0.3 mg/mL; DOPC degradants by RP-HPLC [1, 15]: 0.60 mg/mL
CCCCCCCC/C=C\CCCCCCCC(=O)O[C@H](COC(=O)CCCCCCCCCCCCCCC)COP(=O)([O-])OCC[N+](C)(C)C [POPC] |  |  |  |  |  |  |  |  |  |  |  |  | Lipid Impurities (HPLC) ([1]; solubilized Batch #4 in syringe, t = 0): 2.10%; Lipid Impurities (HPLC) ([1]; solubilized Batch #4 in syringe, t = 30 min): 2.91%; Lipid Impurities (HPLC) [1, 15]: 2.94%; Lipid Impurities (RP-HPLC) ([1]; t = 0): 2.65%; Lipid Impurities (RP-HPLC) ([1]; t = 4 h): 1.21%; Lipid Impurities (RP-HPLC) ([1]; t = 24 h): 1.04%; Lipid Impurities (% Area) [1, 3]: 2.65%; Lipid Impurities (% Area) [1, 4]: 2.79% and 2.62% and 2.63% and 2.61% and 2.59%
FTELTLGEF (Survivin HLA-A1 (modified)) [SurA1.T, survivin peptide antigen [HLA-A1]] | 1.09 mg/mL | 1.07 mg/mL (2×) and 1.10 mg/mL and 1.09 mg/mL and 1.11 mg/mL | 1.03 mg/mL | 1.02 mg/mL | 1.03 mg/mL | 1.02 mg/mL | 0.97 mg/mL | 1.07 mg/mL | 1.03 mg/mL | 1.04 mg/mL | 0.99 mg/mL | 1.04 mg/mL | 
LMLGEFLKL (Survivin HLA-A2 (modified)) [SurA2.M, survivin peptide antigen [HLA-A2]] | 1.14 mg/mL | 1.11 mg/mL and 1.14 mg/mL (2×) and 1.15 mg/mL and 1.18 mg/mL | 0.95 mg/mL | 0.91 mg/mL | 0.91 mg/mL | 0.89 mg/mL | 0.88 mg/mL | 0.91 mg/mL | 0.95 mg/mL | 0.92 mg/mL | 0.89 mg/mL | 0.91 mg/mL | 
LPPAWQPFL (Survivin HLA-B7) [SurB7, survivin peptide antigen [HLA-B7]] | 1.09 mg/mL | 1.07 mg/mL (2×) and 1.11 mg/mL (2×) and 1.08 mg/mL | 1.09 mg/mL | 1.01 mg/mL | 1.00 mg/mL | 1.00 mg/mL | 0.99 mg/mL | 1.03 mg/mL | 1.09 mg/mL | 1.01 mg/mL | 1.01 mg/mL | 1.03 mg/mL | 
RISTFKNWPK (Survivin HLA-A3 (modified)) [SurA3.K, survivin peptide antigen [HLA-A3], added after sizing] | 0.89 mg/mL | 0.86 mg/mL and 0.90 mg/mL and 0.91 mg/mL and 0.88 mg/mL and 0.92 mg/mL | 1.04 mg/mL | 0.99 mg/mL | 0.93 mg/mL | 0.92 mg/mL | 0.93 mg/mL | 1.02 mg/mL | 1.04 mg/mL | 0.98 mg/mL | 0.97 mg/mL | 1.02 mg/mL | loss in content from the nominal target limit in the final bulk ([2]; peptide combined with lipid mixture before size extrusion (retained by extruder membrane)): approximately 25%
RRT 3.66 LMLGEFLKL (M oxidized to sulfoxide; SEQ ID NO: 2): peptide impurity: LMLGEFLKL with M oxidized to sulfoxide (L[Met(O)]LGEFLKL) |  |  |  |  |  |  |  |  |  |  |  |  | Peptide Impurities by RP-HPLC (% Area) ([2]; Average (n = 5)): 0.55%; Peptide Impurities by RP-HPLC (% Area) ([2]; individual Vial 1-5): 0.65% and 0.40% and 0.53% and 0.58% and 0.57%
STFKNWPFL (Survivin HLA-A24) [SurA24, survivin peptide antigen [HLA-A24]] | 0.93 mg/mL | 0.92 mg/mL and 0.94 mg/mL and 0.93 mg/mL and 0.91 mg/mL and 0.95 mg/mL | 1.00 mg/mL | 0.98 mg/mL | 0.98 mg/mL | 0.95 mg/mL | 0.95 mg/mL | 0.99 mg/mL | 1.00 mg/mL | 0.99 mg/mL | 0.97 mg/mL | 1.00 mg/mL | 
